The record followed here is the DeepSol protein solubility set.

The nature of this series: soluble on expression in E. coli; label from the status in PepcDB or PDB records.
Take “MDLTLIIDNYDSFVYNIAQIVGELGSYPIVIRNDEISIKGIERIDPDRLIISPGPGTPEKREDIGVSLDVIKYLGKRTPILGVCLGHQAIGYAFGAKIRRARKVFHGKISNIILVNNSPLSLYYGIAKEFKATRYHSLVVDEVHRPLIVDAISAEDNEIMAIHHEEYPIYGVQFHPESVGTSLGYKILYNFLNRV”: the “soluble on expression in E. coli” value is recorded as “soluble”. On to “MILVFLDNMASIKDLNLIDEINDSSNLKLINDRLKLLFWTKNPEITDEENKKKYLDFLNEYWDTLRAYGAGDLELFPDKINYLTLILAANSKNHNIYIKKLAEKYAEKIPIEDGDSKINIWDFIDVAANSRNNDLHLERMILEGDTVLLNQKNQSIYNFEKIRLKLKNYVEKVRNAEMPKEIKDLLVKKSEEAFEGINIGYNIESGIKVSTKEYSGEIPEDWHPPCMREILNDILSGGSPSHYARRSFVVYRFVSQFDPNLRPIEEGIITNRSAQDIATEEQIERFLDEIINIFKSVGDFDVEKTKYYISHNIGYKVANHITHCEYCKNWRDDGGKGLGYYCRPDSTCSRKDIIHPLDYLCHNINRHVKKSELEHHHHHH”, for which the “soluble on expression in E. coli” value is recorded as “not soluble”.

On to “MSLKSRTIKSIEVFPVQLPVKRTFNFASGSAGAQGSLAKLVFVKVTDSEGCHGWGEGRAHPQWSYETPESLVSTLRKHLAPAVIGLDIWDRRNLHARMHAAVGRGPSTGMPVAKAALDIAVHDLCARASGLPLRAFLGGSSEKTEVALSWTVAVKSPAEVGDDVAAGRSEGFAHFNFKVGVSLKQDEELVRAARTHVPADSFLWMDANQGVEFTRAVRLARVLEEHAVNVLEQPLAADQMHQMRHLRSQTAIPLAVDESSVSPGDYFAHAAEGLVDYFVLKLTRTGGIWPTLLQLGTATSAGHGLLVSGLSDSMVTKLAACQVAAAFGFTGPAALNGSQFLDDSVLFPTKSAVERRGIVHLDTSPGLGIEPDENALRAHAWKTDCVEGHHHHHH”, for which the “soluble on expression in E. coli” value is reported as “soluble”.

Turning to “MVADHFRYLVQYDDINREEHAHKSRIAYQEALGIAKDKMQPTHPIRLGLALNASALNFDVLNLPKEANEIAQSALDSAHRELEKMKSSLDSYDISNLKRARTLYDLLKSTHEQRVDGKEGEEADN”, the “soluble on expression in E. coli” value is recorded as “not soluble”. Consider “MNVDEDCYFASLTHGLNTDCRRANAKMKETLKNYNFSAFLVEQNCLRCPNNDCNLSFVLILQKTEFFRLKRDVVFEVRPTIVVHRSFKELVSADRKIRQDITEKNTVGVQASVETVNKFVDACPSICNIQSQTDIMAEKMHIGIQTEEVKFVSEISALGITEVECQNVFPTSFIKTEPVSTSPVRTMEVQQDNDDDDVMFIEIRPRIHEFPSTREIKQEENTTEDTVHLEKVIPEDSVRDVKDEPISEPVEQETSSSSISKELGDSGSSKFSDVADNHTASLNLSMLSQRSTVTSSSISQSIPTPRGRDTPSAAKRAKFSDVEMCRICWDVTFFTTLEEYCNHVQDRHCSVARFKCSSCERKFWDIRSGTQHLKAHNEDGAGNSISHILPEISEEHLSKFINVANQCYPETFRNTQSEKILDIINALP”, for which the “soluble on expression in E. coli” value is given as “not soluble”. For the sequence “MRHTCPKVTLRQRAIRNGRISLYLDYYPAVRNPETMQMSRREYLGIYIYAHPKNEMEREFNMDMLNKAEAIRCIRVQSLINEEFGFLDRTKMKTDFLAYFLKMCRKKDQKWRIVYQHFYNYVQGHCTFGDITIELCQGFREYLLNAKQLKRKGKVSTNSASGYYSTFRGLLKIAYRDKWLRENINDFLDKIEAKEVKKEYLTLDEVKILAQTPCEHDVLKRASLFSCLTGLRISDILNLRWEDFTLAPDQGYCIRIRTQKTSTEATLPIS”, the “soluble on expression in E. coli” value is “not soluble”.

As for “MADKDTYTGFCIIKEGTKISKSGWEVLSFTTQEASGEGAGNGLAKCLIDGDTETFWHAKWQGGSDPLPYDIVIDMKQNIQIAQVELLPRGRGSNNPIKVVEFAASEDNVNWTPIGRFGFTNQDAALEYYVKSIKARYIRLTIPDDGGNSTVAAIRELDVKGTIINLEHHHHHH”, the “soluble on expression in E. coli” value is “soluble”. Turning to “MSLKIHGLIDAPFTPFYENGEVNYEPIEAYCQLLVRNGLQGVFINGSSGEGYMLTEDERMKLAERWMEVAPEGFKVIVHVGSTCVKSSKRLAEHAQKIGAWGIGAMAPPFPKVGRIEELVKYCEEIACGAPALPFYFYHIPAFNGAFLSMVAFLEAVDGRIPNFAGIKYTFESLYEYNQCRLYKNGKFDMLHGQDETILPCLAMGGAQGGIGGTTNYNGKELTGIIEAWKAGDLELARERQNFAQEVINVICHYRGNIVGGKRIMKLIGLDLGKNRTPFQNMTDEEEAAMKAELEAINFFEREGHHHHHH”, the “soluble on expression in E. coli” value was “soluble”. The value for “MGEAAYVTVSALTKYIKRKFDVDPHLENIWIKGELSNVKIHTRGHIYFTLKERKGRMQSVMFARQSERLPFKPENGMKVLVRGGISVYEPSGNYQLYAKEMQPDGVGALYLAYEELKKKLAGEGLFDDRYKKQIPAFPATIGVVTSPTGAAVRDVITTLKRRYPLVKVIVLPALVQGENASRSIVTRIEEANEKEICDVLIVGRGGGSIEELWAFNEEIVARAIFASNIPIISAVGHETDFTISDFVADIRAATPTGAAEIAVPHTTDLIERTKTAEVRMTRAMQQHLGQEKGRIQTLQSSYAFRFPKRLYAQKEQQFDLAYQQFQAQLTALLDRKSRQLERETYRLEALHPHEQLKQARTRYQEQTNQLRKNMNIQMKQLHSQFQTVLGKLNALSPLQVMERGYSLAYKEDKLIKSVSQIEEQDRLEIKLKDGVLTCEVLEKRGEEK” was “not soluble”.

In the case of “MDPLSWLYARQGRFAPGLERIRAFLARLGHPEEAYPVALVGGTNGKGTTARALAAILEEAGFRVGLYTSPHLVDFRERIQVQGRPIPEEKLLALLAELRPHAERLEASFFEVATALALLHFAREGVEFAVLEVGLGGRLDATNATEPVLSVVTNVGHDHLEVLGPTLKDVAREKAGIFRGGVPALTAARGEGLGVLRAEALGRKNPPWVLGEDFHAEGVEALPQGLAFTLRLERTGEALRLTARLLGPHQAENLALAALSGRLLGAGWEAVKRGVARAENPGRLQRLLWRGRELLLDGAHNPEGALALREALRFHGLLPAAFVLGFSRDKDHAAMAEALRGLGPVVLTRYASPRSEDPRALLPLFPGAKVVEDPLEALEEAFSREGRVVVAGSLYLVGEVLRRLEGLPAEERWQ”, the “soluble on expression in E. coli” value is “soluble”.

For the sequence “SDALSWGHGPRLFEVFLEPTCPFSVKAFFKLDDLLAQAGEDNVTVRIRLQSQPWHMFSGVIVRCILAAATLEGGKESAKAVMTAVASHREEFEFEHHAGGPNLDATPNDIIARIERYSGLALAEAFANPELEHAVKWHTKYARQNGIHVSPTFMINGLVQPGMSSGDPVSKWVSDIG”, the “soluble on expression in E. coli” value was “not soluble”.

For the sequence “SHRKFVVQLFAEEWGQYVDLPKGFAVSERCKVRLVPLQIQLTTLGNLTPSSTVFFCCDMQERFRPAIKYFGDIISVGQRLLQGARILGIPVIVTEQYPKGLGSTVQEIDLTGVKLVLPKTKFSMVLPEVEAALAEIPGVRSVVLFGVETHVCIQQTALELVGRGVEVHIVADATSSRSMMDRMFALERLARTGIIVTTSEAVLLQLVADKDHPKFKEIQNLIKASAPESGLLSKV”, the “soluble on expression in E. coli” value is “soluble”.

Consider “KVGLIIISHGRIATETVNVVKELLGVKFPVAIDMPLDEKPINIYNKAVELSKIIDQGKGILFLVDIGSLTNIGQIVNKRTNISTKTIDRVDLLMALEATRKVSMGEEELDEIFFSLLKDRMGYNYELEKHIDKS”, for which the “soluble on expression in E. coli” value is on record as “not soluble”.

“MGSDKIHHHHHHMDISDIAANDYVEVDAEQRLGKVRSLFERENPKGVIVTEAGAYDGVITERQLIQSHIGDDTRVAAMVTDAPKVSRTEDVRETARMLVEGGTKIAPVFEAGSLWGVITEDAILDAVLANLDALDVRDIYTEHVVTVDEDDSMGRVINLLREHGISRLPVVDDAGLLSGIVTRYDIVDFVVRDTEKTTVGDRSGEIERLLDLPVSDEMTSPVKTASFDDSVRDAVDDMLAHDYSGVIVTPDDDERAVGGILTKTDVLRALSYTEEEHLDVQITNIDLLDTLSRQEVRERIENVVAKYGDMDVHHAHVRLSKHKEKLRGTPLIQSQIRLRTNKGQIAGTGEGYGADNSFHVALDKLERNVLELKGIEHDEEYEGQLLRKLNDL”: the “soluble on expression in E. coli” value was “not soluble”. “MSLERQEHSPLILLGEDEKFQATIVKDVLERKNFDVRIAPNGKVAYEMFCENRLFQLVIVDVFMPVVDGLRSVKLIRQYESNHQIERCPIIICSGNESIIRSGNNSQDTGGDAFVSKPFRPSLIDLVYKLIGKKEGHHHHHH”: the “soluble on expression in E. coli” value is on record as “not soluble”. Take “MGHHHHHHSHMRVFIIHLSPKTCQNFSLKETHITPLLESLKLQGISYEIFDAIYSKISPTQLHPLILEHLHPSFMVEDLWAFCKNKKHPPCALKNFFYAIKHCGKRMGFGELGCYASHYSLWQKCIELNEAICILEDDIIIKDRFKESLEFCRHHINELGYIRLMHLEENVAKQKTPVKGVSQILNFKDGIGTQGYVLAPKAAQKLLKYSAKEWVMPIDCVMDRHYWHGVKNYVLEEFAIACDGMNAQNSNTEKQRPKKLPLSIRIGRSLHKSTIKFLDKVFRYSPKLIRIGKH”: the “soluble on expression in E. coli” value is “soluble”. The value for “MSRSRSAAASSSQKPDDMDLMSPDGSASSPSAPNTPATNSGGFSSDRKKATHLRCERQRREAINSGYSDLKDLIPQTTTSLGCKTTNAAILFRACDFMSQLKTDISDADKQLAQLNAQAAALEMIASEYEQMASSVPDAGQSTIQVKMLQLLLDDCFTSFSSQVDFTTYATITRTLLSWVESLAPNAEPFKSTAGKMVTMPFTSP” was “not soluble”. On to “MGSDKIHHHHHHMAKPLFDQLLASAQQARAPFHTPGHKLGRAIATHLQQAWGSAIFQSDLPELPELDNLYAASGVLAESQAQAAEVFGADRSWFLVNGSTGGLLAAILTICSPGDRLLLPRNAHRSLLSGCILSGAMPVWITPPEAADFDLVGVPTPEQVATALAQDPQIKAVVLVSPTYEGVCADVAAIAAIAHNHNLPLIIDAAHGAHLGFHPDLPRSPLHEGADLVVQSTHKLLGALTQAAMLHCKGDRIDPERLSQSLALVQSSSPSYLLLASLEAATEQMRTSAQDLLQVTIDLARQAHQRLAELPGLQLPALKIGNREGFPQWDRTRLVINFQSCGWSGFCADEYLHEQWQVTAELPSLSNLVFHLSLGNRIEDIDRLVTACDRLLSQEHQEELPPRLPVWLEPETILSPRQAWFSRHQTVSAEQAIGAIAAECVCPYPPGIPVLLPGERISKSAVDYLRQVQTTGGILSGCADPELTTLRIVQDSDTIHASCLS”, for which the “soluble on expression in E. coli” value is listed as “not soluble”. Take “MSLEGEVEKTQAKGSIILATTTSTSDSGLLDYLLPEFTKDTGIEAKVVAVGTGQALQMGKDGEADVLLVHSKAAEEEFVAAGDGLERKDVMYNDFILVGPANDPLKLKQELPNDIVGALKKISEQKFKFISRGDDSGTHKKELALWTEVGITPEGDYYVSAGRGMGDVLKMADEMQAYTIADRGTYLSMKADLGLDIIVEKDTNLFNQYGVIPVNPDKNENINAEGAKAFEEWILSEKAQSLIGEYGKEKYGAPLFTPNAAKEGHHHHHH”: the “soluble on expression in E. coli” value is “soluble”. As for “MSLSLPRWKQIVHMLYLKMEFISGGELGEALAVNPRTIRNDIKVINQILMIGGNRIESLPGVGYRLVIGDEKALREALLDDSIGRANMNIVPMFAEDRADYIIRYLLLKNDYVKLETLSEELFVSKSTINLDILEVKRKLKENELKVEKRAGYGIRITGAELAIRFCFSRYLLVESTSPLITETEINFFGEVNLEMMEQIVVSNIAKYNIHMTDISVKNLIIHIAIAVCRVKDNCYVPATDLEDIEFSMPELRAAQGIIKEIDLSEGIRFPESETAYLLLHLSSKNRKSDFNNYREYIIVDKMLEKIKELYGYDFKQDQKMISNIALHLKPAINRIKFNMNIQNPYLKNLKANYPLAFELGLVAKEVLEQELKTNVDEAEVGYLAIHFLYGLDKEEGHHHHHH”, the entry is “soluble”.
